# Measured values published in the nanobody polyreactivity screen of Harvey et al. (2022).
# Test: yeast display, Sf9 membrane polyspecificity reagent, FACS + sequencing; frameworks hold sequencing errors
# In short: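 Sorting gates, low and high (top ~1%), were placed on anti-HA fluorescence to track expression and on streptavidin fluorescence to track reagent binding. A clone's polyreactivity label is taken from the gate it came out of. The reagent was 10% biotinylated, detergent-solubilized Sf9 membrane, applied for 1 hour at 4 °C to galactose-induced yeast display cells.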
row,Sequence,polyreactivity (PSR sort gate)
1,QVQLVESGGGLVQAGGSLRLSCAASGSTISRYAMGWYRQAPGKEREFVAAISWRGGSTYYADSVKGRFTISRDNAKNTVYLQLNSLKPEDTAVYYCNADYRYARKGHYGKFGYWGQGTQVNVSS,high polyreactivity
2,QVQLVESGGGLVQAGGSLRLSCAASGSTITYYAMGWYRQAPGKERELVAAISGSGRTHYADSVKGRFTISRDNAKNTVYLQMNSLKPEDTAVYDCNARQYTYNYAFTRCKYDYWGQGTQVTVSS,high polyreactivity
3,QVQLVESGGGLVQAGGSLRLSCAASGSTIVGYTMGWYRQAPGKERELVAAISRGGGSTYYADSVKGRFTISRDNAKNTVYLQMNSLKPEDTAVYYCNAYTYNRYYWGQGTQVTVSS,high polyreactivity
4,QVQLVESGGGLVQAGGSLRLSCAASGSTIVIYTMGWYRQAPGKERELVAAISQSGGRTYYADSVKGRFTISRDNSKNTVYLQMNSLKPEDTAVYYCAATWGKHYGYWGQGTQVTVSS,high polyreactivity
5,QVQLVESGGGLVQAGGSLRLSCAASGSTIVVNAMGWSRQAPGKERELVASISWTTGSTYYADSVKGRFTISRDNAKNTVFLQMNSLKPEDTAVYYCAADILPRYSQFDYWGQGTQVTVSS,low polyreactivity
6,QVQLVESGGGLVQAGGSLRLSCAASGSTIVYYAMGWYRQAPGKERELVARITWSGGRTYADSVKGRFTISRDNAKNTVYLQMNSLKPEDTAVYYCNADPGDNTTEYDYWGQGTQVTVSS,low polyreactivity
7,QVQLVESGGGLVQAGGSLRLSCAASGSTIYINGMGWYRQAAGKERELVAVISKRGGTTYYADSVKGRFTISRDNAKNTVYLQMNSLKPEDTAVYYCADRPYYWGQGTQVTVSS,high polyreactivity
8,QVQLVESGGGLVQAGGSLRLSCAASGSTIYLYAMGWSRPAPGKERVLVAAIRGRGGRTYYADSVKGRFTISSDNAKNTVYLKMNSLKPEDTAVYYCNADVYAYYRATTRFDYWGQGTQVTVSS,high polyreactivity
9,QVQLVESGGGLVQAGGSLRLSCAASGSTLAIYAKGWYRQAPGKERELVAAISGGGSTYADSVKGRFTISRDNAKNTVYLQMNSLKPEDTAVYYCNADGWGDRFWSNFRFDYWGQGTQVTVSS,low polyreactivity
10,QVQLVESGGGLVQAGGSLRLSCAASGSTLALNAIGWYRQAPGKEREFVADISWSGGDTYYADSVKGRFTISRDNAKNTVYLQMNILKPEDTAVYYCATDFSYQFQALEDDYWGQGTQVTVSS,low polyreactivity
11,QVQLVESGGGLVQAGGSLRLSCAASGSTLALYTMGWYIQAPGKERELVAAISKNGGRTYYADSVKGRFRISRDNAMNTVYLQMNSLKPEDTAVYYCAAASGSYRGYDYWGQCTQVTVSS,high polyreactivity
12,QVQLVESGGGLVQAGGSLRLSCAASGSTLARYAMGWYRQAPGKERELVAAISSDGRTYYADSVKGRFTISRDNAKNTVYLQIYSLKPEDTAVYYCATLRPYAYPQYDSWGQGTQVTVSS,high polyreactivity
13,QVQLVESGGGLVQAGGSLRLSCAASGSTLDGYGMRWYRQAPGKERELVAVITIGGGRTYYADSVKGRFTISRDNAKNTVYLQMNSLKPEDTAVSYCAAKGWRRYYIGDYWGQGTQVTVSS,high polyreactivity
14,QVQLVESGGGLVQAGGSLRLSCAASGSTLDSYAMGSYRQAPGKERELVAAISGSGGSTYYADSVKGRFTISRDNAKNTVYLEMNSLKPEDTAVYYCDTDYSTQTLGYWYDYWGQGTQVSVSS,low polyreactivity
15,QVQLVESGGGLVQAGGSLRLSCAASGSTLFYAMGWYRQAPGKERELVAAISWSGGSTRYADSVKGRFTISRDNAKNTVYLQMNSLKPEDTAVYYCNTYTKHTGYYWKYDYWGQGTQVTVSS,low polyreactivity
16,QVQLVESGGGLVQAGGSLRLSCAASGSTLGDNGMGWYIQAPGKERELVAAITIGGSTTYADSVKGRFTISRDNAKNTVYLQMNSLKPEDTAVYYCAADQQARDQYSDWTEYDYWGQGTQVNVSS,low polyreactivity
17,QVQLVESGGGLVQAGGSLRLSCAASGSTLGPYAMGWYRQAPGKERELVATINSSGSTNYADSVKGRFTISRDNAKNPVYLQMNSLKPEDTAVYYCATLHYYYWYDYWGQGTQVTVSS,low polyreactivity
18,QVQLVESGGGLVQAGGSLRLSCAASGSTLGRYAMGWYRQAPGKERELVASITWSDDSTYYADSVKGRFTISRDNAKNTVYLQMNSLKPEDTAVYYCAAAGNLYTYRFYYWGQGTQVTVSS,low polyreactivity
19,QVQLVESGGGLVQAGGSLRLSCAASGSTLGVYAMGWYRQAPGKERELVAAITIGGSTNFADSVKGRFTISRDNAKNTVYLQLNSLKPEDTAVYYCNAYYYWEGHGYTLLSYYYWGQGTQVTVSS,low polyreactivity
20,QVQLVESGGGLVQAGGSLRLSCAASGSTLGWYGMGWSRQAPGKERELVAAIDSGGNTYADSVKGRFTISRDNAKNTVYLQMNSLKPEDTAVYYCAVDGGEFSSYGYWGQGTQVTVSS,low polyreactivity
21,QVQLVESGGGLVQAGGSLRLSCAASGSTLGYYAMGWYRQAPGIVRELVAAISWSGGRTYYADSVKGRFTISRDYAKNTVYLQMKSLKPEDTAVYYCNALYRTHYTGSVYYSWGQGTQVSVSS,high polyreactivity
22,QVQLVESGGGLVQAGGSLRLSCAASGSTLGYYAMGWYRQAPGKERELVAAITSSDGGTYYADSVKGRFTISRDNAKNTVYLQMNSLKPEDTAVYYCAKRRYTSAFGSWYAYDYWGQGTQVNVSS,high polyreactivity

row,Sequence,polyreactivity (PSR sort gate)
1,QVQLVESGGGLVQAGGSLRLSCAASGSTLIDNVMGWYRQAPGKERELVASITSSDGTTYADSVKGRFTISRDNAKNTVYLQMNSLKPEDTAVYYCAARPWYGTYNYWGQGTQVTVSS,low polyreactivity
2,QVQLVESGGGLVQAGGSLRLSCAASGSTLIRNDMGWYRQAPAKERELVAAINTRGTTTYYADSVKGRFTISRDNAKNTVYLQMNSLKPEDTAVYYCAAYAYSAYSPDGQRSRYYYWGQGTQVTVSS,high polyreactivity
3,QVQLVESGGGLVQAGGSLRLSCAASGSTLIRNVMGWYRQAPGKERELVAAINTRGTTTYYADSVKGRITISRDNAKNTVYLQMNSLKPEDTAVYYCAARTPHYSYGYWGQGTHVTVSS,high polyreactivity
4,QVQLVESGGGLVQAGGSLRLSCAASGSTLISYAMGSYRQAPGKERELDAAITYNGGTTHYADSVKGRLTISRDNAKNSVYLQLKSLKPEDTAVYYCAKAQGHVRVSRGLQGGRYDYWGQGTQVTVSS,low polyreactivity
5,QVQLVESGGGLVQAGGSLRLSCAASGSTLISYTMGWYRQAPGKERELVAAITSAVTTYYADSVKGRFTISRDNAKNTVYLQMNSLKPEDTAVYYCNTYPFKTLPYRYPRGDYWGQGTQVTVSS,low polyreactivity
6,QVQLVESGGGLVQAGGSLRLSCAASGSTLIVYAMGWYRQAPGKEREFVAGITVSTGSTYYADSVKGRFTISRDNAKNTVYLQMNSQKPEDTAVYYCAADIRDGWDYFLFWEDGMDYSGQGTQVTVSS,low polyreactivity
7,QVQLVESGGGLVQAGGSLRLSCAASGSTLKYNAMGWYRQAPGKEREFVASITLSACRTYYADSVKGRFTISRDNAKNTVYLQMNSLKPEDTAVYYCAARRYFSYRYDYWGQGTQVTVSS,high polyreactivity
8,QVQLVESGGGLVQAGGSLRLSCAASGSTLKYYAMGWYRQAPGKERELVARITRSSGSTYYADSVKGRFTISRDNAKNTVFLHMNSLKPEDTAVYYCNKVYKSYYCGCYDWGQGTQVTVLS,high polyreactivity
9,QVQLVESGGGLVQAGGSLRLSCAASGSTLLFYAMGWYRQAPGKEREFLATITFRGGSTYYADSVKGRFTISRDNAKNTVYLQMNSLKPEDTAVYYCNAGSRRGYYRSRPGGYCGQGTQVTVSS,high polyreactivity
10,QVQLVESGGGLVQAGGSLRLSCAASGSTLLVYAMGWYRQAPGKERELVAAITYSGTTTYYADSVKGRFTISRDNAKNTVYLQMNSLKPEDTAVYYCAKYPGYFQGNYWGQGTQVTVSS,low polyreactivity
11,QVQLVESGGGLVQAGGSLRLSCAASGSTLLYYAMGWYRQAPGKERELVAAISWRGGSTYYADSVTGRFTISRDNAKTTVYLQINSLKPEDTAVYYCARDIRLKGFRYDYWGQGTQVTVSS,high polyreactivity
12,QVQLVESGGGLVQAGGSLRLSCAASGSTLNDYAMGWYRQSPGKERELVAGINRGGSTNYADSVKGRFTISRDNAKNTVYLQMKSLKPVDTAVYYCAVRAYRWRSTLGLYYWGQGTQVTVSS,high polyreactivity
13,QVQLVESGGGLVQAGGSLRLSCAASGSTLNRNVMGWYRQAPGKEREFVAVITYGVGSTYYADSVKGRFTISRDNAKNTVYLQMNSLKPEDTAVYYCNKDPLVFDYWGQGTQVTVSS,low polyreactivity
14,QVQLVESGGGLVQAGGSLRLSCAASGSTLRGYAMGWYRQAPGKERELVARITSGGRTSYADSVKGRFTISRDNAKNTVYLQMNSLKPEDTAVYYCATRIYGWSFGSWYKYDYWGQGTQVTVSS,low polyreactivity
15,QVQLVESGGGLVQAGGSLRLSCAASGSTLRGYTMGWYRPAPGKERELVAAISWSGASTYYADSVKGRFTISRDSAKNTVYLQMNSLKPEVTAVYYCAVRYWAPYDEYGYWGQGTQVTVSS,high polyreactivity
16,QVQLVESGGGLVQAGGSLRLSCAASGSTLRGYTMGWYRQAPGKERELVAAISWSGASTYYADSVKGRFTISRDNAKNTVYLQMNSLKPEDTAVYYCYRAGRYVREYTVDYWGQGTQVTVSS,high polyreactivity
17,QVQLVESGGGLVQAGGSLRLSCAASGSTLRRHAMGWYRQAPGKERELVAAISSGGSTYYEDSVKGRFTISRDNAKNTVYLQMNSLKPEDTAVYYCAAPYSYRTWYPYGYWVQGTQVTVSS,high polyreactivity
18,QVQLVESGGGLVQAGGSLRLSCAASGSTLRRNAMGWYRQAPGKERELVAAISSGGSTYYADSVKGRFTISRDNAKNTVYLQMNSLKPEDTAVYYCNAAVPRGRYTSYYRSGWLDYWGQGTQVTVSS,high polyreactivity
19,QVQLVESGGGLVQAGGSLRLSCAASGSTLRRYAMGWYRQAPGKERELVAAISGTGSRTYYADSVKGRFSISRDNATNTVYLHMISLKREDTAVYYCNASPYGLTENDYWGQGTQVTVSS,high polyreactivity
20,QVQLVESGGGLVQAGGSLRLSCAASGSTLRRYAMGWYRQAPGKERELVAAITSRGTDTYYADSVKGRFTISRDNAKNTVYLQMNSLKPEDTAVYYCANRRGYVYYPGYDYWGQGTQVTVSS,high polyreactivity
21,QVQLVESGGGLVQAGGSLRLSCAASGSTLRYYAMGSYRQAPGKERELVAAISTGGSTYYADSVKGRFTISRDNAKNTVYLQMNSLKPEDTAVYYSAADGYAHVWDYAYDYWGQGTQVTVSS,low polyreactivity
